The values below come from publication PMC4635569.

Experiment [1] addresses plasma-derived human complement factor H (human) (UniProt P08603).
For experiment [2], the target named is human C3b (human) (UniProt P01024). Briefly: SPR; C3b (~250 RU) or C3d (~70 RU) amine coupled to adjacent flow cells of a Biacore C1 chip; FH preincubated with or without a 2-fold molar excess of PspCN injected (90 s, 30 μl/min, 400 s dissociation); 1:1 binding model.
For another experiment, the target named is human C3d (human) (UniProt P01024). The description is as above.
The target of experiment [3] is human C3b (human) (UniProt P01024). The description is as above. This is another data set of the same source.
For another experiment, the target named is C3b C3b (Homo sapiens) (UniProt P01024). The note with it: cited from earlier work.
In a further experiment the target is C3d C3d (Homo sapiens) (UniProt P01024). Conditions: cited from earlier work.
Experiment [4] concerns the target His6-SUMO-tagged D39 PspC residues 37-140 (Streptococcus pneumoniae D39). Briefly: SPR; PspC-derived proteins immobilised via N-terminal His6-SUMO tags on a Ni2+-loaded Biacore NTA chip (~150 RU); FH, rFH or rFH fragments flowed over (180 s, 100 μl/min, 1500 s dissociation); 25°C; 10 mM HEPES, 150 mM NaCl, 0.05% P20, pH 7.4, 50 μM EDTA; 1:1 binding model; equilibrium method for FH 8–9.

Experiment [5] has as its target (D39)PspCN, D39 PspC residues 37-140 after removal of the His6-SUMO tag (Streptococcus pneumoniae D39). Briefly: SEC-MALS; 4.6 μM in PBS of FH, PspCN or a 1:1 complex; Superose12 10/300 GL column, 0.4 ml/min.

Where two headings read alike, the source gives them in different places. Some results are limits rather than exact numbers.

human C3d (human), sequence (P01024 1002-1303): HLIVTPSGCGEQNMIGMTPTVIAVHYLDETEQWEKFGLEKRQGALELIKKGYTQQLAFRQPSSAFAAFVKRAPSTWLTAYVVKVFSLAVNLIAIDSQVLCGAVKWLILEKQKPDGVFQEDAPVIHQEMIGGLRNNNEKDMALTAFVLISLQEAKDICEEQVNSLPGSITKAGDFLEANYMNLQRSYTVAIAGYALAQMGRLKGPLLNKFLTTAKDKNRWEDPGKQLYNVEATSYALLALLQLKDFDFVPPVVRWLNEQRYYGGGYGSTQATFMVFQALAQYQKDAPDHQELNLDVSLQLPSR
human C3b (human), sequence (P01024 23-667, chain 1 of 2): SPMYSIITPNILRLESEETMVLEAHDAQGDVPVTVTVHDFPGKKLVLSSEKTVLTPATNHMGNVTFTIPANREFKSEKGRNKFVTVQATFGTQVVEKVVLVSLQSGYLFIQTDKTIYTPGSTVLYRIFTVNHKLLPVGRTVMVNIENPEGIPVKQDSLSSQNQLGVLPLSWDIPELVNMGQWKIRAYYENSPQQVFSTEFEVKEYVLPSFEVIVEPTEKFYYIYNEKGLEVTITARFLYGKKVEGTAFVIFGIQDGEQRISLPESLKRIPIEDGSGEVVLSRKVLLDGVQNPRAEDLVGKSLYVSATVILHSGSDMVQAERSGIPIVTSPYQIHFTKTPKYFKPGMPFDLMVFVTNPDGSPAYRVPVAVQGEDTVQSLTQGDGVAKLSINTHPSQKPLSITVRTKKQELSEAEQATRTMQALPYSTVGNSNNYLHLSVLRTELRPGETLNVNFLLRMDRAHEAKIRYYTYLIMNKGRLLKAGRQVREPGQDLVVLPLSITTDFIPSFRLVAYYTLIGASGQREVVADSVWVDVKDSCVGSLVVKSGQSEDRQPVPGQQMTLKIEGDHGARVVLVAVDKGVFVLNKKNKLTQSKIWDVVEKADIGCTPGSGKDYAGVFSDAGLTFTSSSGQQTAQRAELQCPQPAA
human C3b (human), sequence (P01024 749-1663, chain 2 of 2): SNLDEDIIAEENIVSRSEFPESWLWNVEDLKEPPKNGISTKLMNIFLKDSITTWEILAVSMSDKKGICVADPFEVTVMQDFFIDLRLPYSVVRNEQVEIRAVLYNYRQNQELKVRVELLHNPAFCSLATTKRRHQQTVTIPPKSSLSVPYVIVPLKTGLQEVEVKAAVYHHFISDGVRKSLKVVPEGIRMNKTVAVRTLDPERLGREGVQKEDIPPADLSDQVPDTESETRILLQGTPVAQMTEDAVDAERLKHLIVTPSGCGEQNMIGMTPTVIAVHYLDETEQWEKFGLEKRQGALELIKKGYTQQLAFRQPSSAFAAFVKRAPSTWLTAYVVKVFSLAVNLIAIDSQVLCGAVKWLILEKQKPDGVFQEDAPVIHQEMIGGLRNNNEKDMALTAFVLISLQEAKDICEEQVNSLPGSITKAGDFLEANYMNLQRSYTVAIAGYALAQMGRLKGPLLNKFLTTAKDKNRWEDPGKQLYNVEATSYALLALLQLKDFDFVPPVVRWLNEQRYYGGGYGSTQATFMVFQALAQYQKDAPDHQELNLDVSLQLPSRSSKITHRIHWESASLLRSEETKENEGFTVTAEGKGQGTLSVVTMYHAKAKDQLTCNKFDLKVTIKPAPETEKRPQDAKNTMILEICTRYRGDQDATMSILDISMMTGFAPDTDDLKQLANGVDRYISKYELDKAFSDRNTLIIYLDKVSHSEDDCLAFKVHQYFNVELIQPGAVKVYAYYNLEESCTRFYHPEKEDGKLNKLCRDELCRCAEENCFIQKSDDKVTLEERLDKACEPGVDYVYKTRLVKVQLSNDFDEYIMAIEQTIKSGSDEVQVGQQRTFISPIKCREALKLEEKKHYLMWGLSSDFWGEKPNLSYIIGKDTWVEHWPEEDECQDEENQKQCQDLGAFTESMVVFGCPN
C3d C3d (Homo sapiens), sequence (P01024 1002-1303): as the sequence (P01024 1002-1303) above
C3b C3b (Homo sapiens), sequence (P01024 566-670): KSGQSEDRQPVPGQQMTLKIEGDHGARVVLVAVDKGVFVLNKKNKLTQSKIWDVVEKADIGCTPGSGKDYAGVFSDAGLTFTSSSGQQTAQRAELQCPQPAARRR

Regarding “(D39)PspCN, D39 PspC residues 37-140 after removal of the His6-SUMO tag (domain or fragment)”, the inhibition of acidified-serum lysis of PNH-like (AET-treated) human erythrocytes by increasing concentrations of (D39)PspCN; FH of the serum in experiment [1] came to 28 nM.

With “(D39)PspCN:FH complex (plasma-derived FH) (from UniProt P08603 19-1231)”, in the experiment with human C3b (human) [2], the Kd came out at 160 nM and the ratio of KD values for FH versus FH-PspCN was 2.04. In addition, the Kd in the experiment with human C3d (human) was 2300 nM.

Consider “(D39)PspCN:FH(D1119G) complex (from UniProt P08603 19-1231)”, for which the figures for the Kd with human C3b (human) [3] and with human C3b (human) [2] were 330 nM and 320 nM, respectively.

Take “(D39)PspCN:rFH complex (from UniProt P08603 19-1231)”: the Kd in the experiment with human C3b (human) [2] was determined as 280 nM; with human C3d (human), 2200 nM.

Consider “(Tigr4)PspC_(37–179):FH complex (from UniProt P08603 19-1231)”, for which the Kd was found to be 280 nM in the experiment with human C3b (human) [2] and 1200 nM with human C3d (human).

For the substance “Complement factor H CCP 19-20 (from UniProt P08603)”, the Kd with C3b C3b (Homo sapiens) and in the experiment with C3d C3d (Homo sapiens) was 2000 nM each time.

Regarding FH 8–9 (domain or fragment), the Kd in experiment [4] was 30 nM.

Substance FH 8–15 (domain or fragment) returned a Kd in experiment [4] of 1 nM.

With “plasma-derived human complement factor H (from UniProt P08603 19-1231) (natural protein)”, the dissociation over 30 min (off-rate) (% over 30 min) in experiment [4] is less than 0.2. Further, the stoichiometry N in experiment [5] was 1 FH:PspCN.
